Results: article PMC5440646, “T Cell Costimulation by CD6 Is Dependent on Bivalent Binding of a GADS/SLP-76 Complex” (Molecular and Cellular Biology, 2017)
Blank lines part the entries; values can stand above or below the binder they belong to. Where no end group is shown, it is not given here. [ ]: non-standard residue; d: D form. The star is where a group is joined. Biotin = O=C1N[C@H]2[C@H](CS[C@H]2CCCCC(=O)*)N1; pY = N[C@@H](Cc1ccc(OP(=O)(O)O)cc1)C(=O)O

What was measured:
Experiment in all cases: SPR; biotinylated short peptides immobilised at ~25 response units on streptavidin-coated CM5 chips, BIAcore 3000; SH2 domains injected at 10 μl/min at 37°C; equilibrium binding, 1:1 Langmuir
Conditions in all cases: both partners purified
[1] = molecular target: T1, TSAd SH2 domain, His-tagged (UniProt Q9NP31 95-186)
T1 construct: T cell-specific adaptor protein (TSAd, SH2D2A), SH2 domain; In the popinF vector

[2] = molecular target: T2, GADS SH2 domain, His-tagged (UniProt O75791 58-149)
T2 construct: GRB2-related adaptor downstream of Shc (GADS), SH2 domain; In the popinF vector, provided by the Oxford Protein Production Facility
T2 sequence (looked up): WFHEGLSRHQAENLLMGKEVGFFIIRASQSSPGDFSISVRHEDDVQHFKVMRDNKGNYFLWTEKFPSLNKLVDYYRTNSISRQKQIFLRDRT

[3] = molecular target: T3, GRB2 SH2 domain, His-tagged (UniProt P62993 60-152)
T3 construct: In the popinF vector
T3 sequence (P62993 60-152): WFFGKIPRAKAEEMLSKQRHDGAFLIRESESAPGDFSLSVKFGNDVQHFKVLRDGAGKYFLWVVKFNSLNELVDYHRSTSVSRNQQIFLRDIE

T1 sequence (Q9NP31 95-186): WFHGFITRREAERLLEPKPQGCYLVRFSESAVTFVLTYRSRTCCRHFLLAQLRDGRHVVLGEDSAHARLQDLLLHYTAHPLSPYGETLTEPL

Kd [1]: 74 µM | Kd [2]: 2000 to 3000 nM | Kd [3]: 3000 nM
B1: CD28 pYMNM peptide (biotin-LLHSDpYMNMTP) (peptide)
peptide: Biotin-LLHSD[pY]MNMTP
notes: CD28-derived peptide containing the YXN motif; also called phosphorylated CD28-derived peptide; source: synthetic peptide (Peptide Protein Research Ltd.)

Kd [1]: 26 to 58 µM | Kd [2]: 1000 to 3000 nM | Kd [3]: 2000 to 4000 nM
B2: CD6 pY629 peptide (biotin-SSGEWpYQNFQP) (peptide)
peptide: Biotin-SSGEW[pY]QNFQP
notes: CD6, human, cytoplasmic region around Y629; also called phosphorylated CD6 Y629 peptide; source: synthetic peptide (Peptide Protein Research Ltd.)
